# Legend:
# [1] = tested on: established orthotropic HCC; settings: mice bearing established orthotropic HCC; cited from earlier work
# PBMCs (CD4+ T cells) = assay: Flow cytometric analysis of peptide-cultured PBMCs (IFN-γ+CD4+, CD154); type: cell-based, human; settings: PBMCs of HD #1
# Protocol: FIG. 3A is a histogram, FIGS. 3B and C are bar graphs, and FIG. 3D is a line graph. Characterization of ASPH peptide-specific T cell responses. PBMCs obtained from patient HD #1 were cultured with the ASPH peptides indicated. After 2 weeks incubation, the cells were collected and re-cultured with the corresponding peptides for 20 hours, followed by analyses. p52-reactive PBMCs were stained and the percentage of IFN-γ^+CD4^+ T cells was determined by flow cytometric analysis (FIG. 3A). The percentage of CD154-expressing CD4^+ T cells assessed by flow cytometric analysis was determined as a measure of the response of cells to the ASPH peptide listed in accordance with Table I (FIG. 3B). […] PBMCs cultured 2 weeks with the peptides listed were not treated or pretreated with anti-HLA-A,B,C or anti-HLA-DR for 1 hour; the same corresponding peptide (10 μg/ml) was then added and IFN-γ in the culture supernates collected after 5 days was quantified by ELISA (FIG. 3C). […] PBMCs, cultured 2 weeks with the ASPH peptides listed, were collected and reincubated with increasing concentrations of the same peptide. IFN-γ in the culture supernates collected after 5 days was quantified by standard ELISA. […]
# [2] = tested on: tumor-bearing mouse model; settings: cited from earlier work
# Treg cells = settings: low doses; cited from earlier work
# PBMCs = assay: IFN-γ ELISpot after 2 weeks PBMC culture with single ASPH peptide; type: cell-based, human; settings: 5 healthy blood donors HD #1-5
# Protocol: (§1) Epitope-specific T cells were induced according to known methods.^21 Briefly, 2.5×10^5 PBMCs/200 μl X-VIVO 15 medium supplemented with 1 mM L-glutamine, 100 U/ml penicillin, 100 μg/ml streptomycin, and 50 U/ml recombinant human IL-2 (R&D Systems) in round-bottom 96-well plates were cultured for 2 weeks with 10 μg/ml individual peptide. When mature DCs were used as antigen-presenting cells, the T cells were isolated from PBMCs by negative selection using the Pan T Cell Isolation Kit II (Miltenyi Biotec). Regulatory T(reg) cells were removed by the addition of anti-CD25 microbeads (Miltenyi Biotec) where indicated. Treg cell-depleted or non-depleted T lymphocytes (2.4×10^6) were co-cultured for 8 days with 4×10^4 mature DCs loaded with relevant antigen in 24-well plates.^11
# Human IFN-γ enzyme-linked immunospot (ELISpot) assays were performed as we described previously using a kit purchased from eBioscience (San Diego, Calif.) to determine T cell immune-reactivity.^21 Cells (5×10^4/well) were added to ELISpot plates (Millipore, Bedford, Mass.) pre-coated with anti-IFN-γ capture antibody and incubated with peptides (10 μg/ml) for 20 hours. […] The plates were developed by adding substrate, 3-amino-9-ethyl carbazole, and the number of spots/well was quantified using a CTL-immunospot S5 UV Analyzer (Cellular Technology Limited, Shaker Heights, Ohio).
# [3] = tested on: pan T cells purified from PBMCs (CD4+ T cells, CD8+ CTLs); assay: T cell activation by co-culture with antigen-loaded monocyte-derived DCs, flow cytometric analysis; type: cell-based, human
# Protocol: DCs were generated using known methods.^11,20 Monocytes were isolated from PBMCs using anti-CD14 microbeads (Miltenyi Biotec, Auburn, Calif.) and cultured for 5 days in X-VIVO 15 medium (Lonza, Walkerville, Md.) supplemented with human GM-CSF (R&D Systems, Minneapolis, Minn.) and IL-4 (R&D Systems). ASPH (1 μg/ml) was added on day 5. On the next day, TNF-α (R&D Systems) was added to stimulate DC maturation and the cells were incubated for another 48 hours. DCs incubated with α-fetoprotein (AFP; Zynaxis Cell Science, Malvern, Pa.) or alone served as the control. Mature, epitope-expressing DCs were collected at the end of the incubation period and used in the experiments described.
# as §1
# Flow cytometric analysis was conducted.^11 Intracellular cytokine staining was performed to evaluate T cell activation. Conjugated mouse monoclonal antibodies specific for the following determinants were used: CD4 (clone OKT4; BioLegend, San Diego, Calif.), CD8a (clone RPA-T8; BioLegend), CD137 (clone 4B4-1; BD Biosciences, San Diego, Calif.), CD154 (clone TRAP1; BD Biosciences), and IFN-γ (clone B27; BD Biosciences). Appropriate isotype controls were included in each analysis.
# Experiments were undertaken to determine the capacity of ASPH to activate CD8^+ CTLs, as well as helper CD4^+ T cells, contained in the PBMC populations derived from HCC patients. The experimental procedure for evaluating ASPH-specific T cell activation was optimized using PBMCs derived from a healthy donor.^11 Pan T cells were co-cultured with autologous, ASPH-pulsed DCs; T cells co-incubated with AFP-pulsed or non-pulsed DCs served as controls. After 8 days culture, the T cells were collected and re-incubated with freshly prepared DCs pre-loaded with the same antigen; antigen-specific T cell activation was evaluated by flow cytometric analysis. […] Moreover, they support the premise that immunization with ASPH activates protein-specific CD4^+ and CD8^+ T cells in HCC patients.
# [4] = HCC patients #1-5, ASPH-pulsed vs AFP-pulsed or non-pulsed DCs
molecule,measurement,setting,value
CNC(=O)c1cc(Oc2ccc(NC(=O)Nc3ccc(Cl)c(C(F)(F)F)c3)cc2)ccn1 [sorafenib],Treg cell function and anti-tumor immunity,[1],reduced Treg cell function and enhanced anti-tumor immunity
"TSFFTWFMVIALLGVWTSVA (p52) [ASPH AA 52-71, HLA-DRB1-restricted]",peptide-reactive IFN-γ-producing cells that expressed CD4,PBMCs (CD4+ T cells),essentially all
O=P1(N(CCCl)CCCl)NCCCO1 (centres unmarked) [cyclophosphamide],"Treg cell function, immune response and tumor eradication",[2],suppressed Treg cell function and augmented the immune response and tumor eradication
same,number and inhibitory activity of Treg cells,Treg cells,decrease the number and inhibitory activity of Treg cells
"QKAKVKKKKPKLLNKF (p322) [ASPH AA 322-337, HLA-DRB1-restricted]",healthy blood donors for whom the peptide was immunogenic,PBMCs,5 donors
"ASPH: Full-length human ASPH recombinant protein produced in a Baculovirus system, loaded on monocyte-derived DCs (protein, listed as Homo sapiens) MAQRKNAKSSGNSSSSGSGSGSTSAGSSSPGARRETKHGGHKNGRKGGLSGTSFFTWFMVIALLGVWTSVAVVWFDLVDYEEVLGKLGIYDADGDGDFDVDDAKVLLGLKERSTSEPAVPPEEAEPHTEPEEQVPVEAEPQNIEDEAKEQIQSLLHEMVHAEHVEGEDLQQEDGPTGEPQQEDDEFLMATDVDDRFETLEPEVSHEETEHSYHVEETVSQDCNQDMEEMMSEQENPDSSEPVVEDERLHHDTDDVTYQVYEEQAVYEPLENEGIEITEVTAPPEDNPVEDSQVIVEEVSIFPVEEQQEVPPETNRKTDDPEQKAKVKKKKPKLLNKFDKTIKAELDAAEKLRKRGKIEEAVNAFKELVRKYPQSPRARYGKAQCEDDLAEKRRSNEVLRGAIETYQEVASLPDVPADLLKLSLKRRSDRQQFLGHMRGSLLTLQRLVQLFPNDTSLKNDLGVGYLLIGDNDNAKKVYEEVLSVTPNDGFAKVHYGFILKAQNKIAESIPYLKEGIESGDPGTDDGRFYFHLGDAMQRVGNKEAYKWYELGHKRGHFASVWQRSLYNVNGLKAQPWWTPKETGYTELVKSLERNWKLIRDEGLAVMDKAKGLFLPEDENLREKGDWSQFTLWQQGRRNENACKGAPKTCTLLEKFPETTGCRRGQIKYSIMHPGTHVWPHTGPTNCRLRMHLGLVIPKEGCKIRCANETRTWEEGKVLIFDDSFEHEVWQDASSFRLIFIVDVWHPELTPQQRRSLPAI",CD4+ T cells expressing both IFN-γ and CD154,[3]; HCC patients #1-5,expanded significantly
same,CD4+CD154+ and CD4+IFN-γ+ T cells,[3]; [4],significant increases
same,percentage of CD8+ CTLs expressing CD137 and IFN-γ,[3]; [4],significantly higher
same,percentages of responsive cells vs AFP sample or antigen control,"[3]; HCC patients, FIGS. 1B and 1D, p<0.05",significantly greater
same,ASPH-specific T cell activation after Treg cell depletion,[3]; anti-CD25 microbeads prior to co-culture,enhanced
same,activation of both CD4+ T cells and CTLs,"[3]; healthy donor HD #1, ASPH-pulsed DCs compared to AFP or no antigen",significant increases

# From patent publication US10813984B2, “Aspartate-β-hydroxylase induces epitope-specific T cell responses in tumors” (Rhode Island Hospital, priority 2014, dated 2020)
